Experimental data: PMC10454739, “Further Developments towards a Minimal Potent Derivative of Human Relaxin-2” (International Journal of Molecular Sciences, 2023)

Key:
[1] = molecular target: T1, 7BP (RXFP1 ectodomain fused to the single trans-membrane-spanning domain of CD8) (Homo sapiens, UniProt Q9HBX9); assay: Competitive binding assay with Eu3+-labeled H2 relaxin in HEK-7BP cells; settings: whole-cell competition binding vs Eu3+-labeled H2 relaxin, HEK cells expressing 7BP; one-site fit; mean ± S.E.M., n of experiments in brackets
T1 construct: contains the RXFP1 ectodomain fused to the single trans-membrane-spanning domain of CD8; expressed in transfected cells; host or cells: HEK cells (HEK-7BP)
T1 sequence (Q9HBX9 1-409 limits assumed): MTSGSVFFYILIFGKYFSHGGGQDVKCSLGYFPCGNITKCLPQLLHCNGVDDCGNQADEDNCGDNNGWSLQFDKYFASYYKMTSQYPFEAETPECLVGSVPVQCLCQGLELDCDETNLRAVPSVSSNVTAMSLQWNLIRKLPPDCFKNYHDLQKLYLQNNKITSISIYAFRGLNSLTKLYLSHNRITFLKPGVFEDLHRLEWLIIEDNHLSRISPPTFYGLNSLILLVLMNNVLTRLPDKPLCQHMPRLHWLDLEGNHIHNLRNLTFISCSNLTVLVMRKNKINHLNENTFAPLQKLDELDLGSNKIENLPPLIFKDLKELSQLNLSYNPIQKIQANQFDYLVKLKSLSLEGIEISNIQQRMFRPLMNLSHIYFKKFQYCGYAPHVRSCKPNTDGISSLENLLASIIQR
Experimental: Human embryonic kidney (HEK-293T) cells stably transfected with RXFP1 were cultured in RPMI 1640 medium supplemented with 10% fetal calf serum, 100 μg mL^−1 penicillin, 100 μg mL^−1 streptomycin, and 2 mM of L-glutamine and plated into 96-well plates pre-coated with poly-L-lysine for whole-cell binding assays (Merck, Darmstadt, Germany). Competition binding experiments using Eu^3+-labeled H2 relaxin in the absence or presence of increasing concentrations of unlabeled H2 relaxin B-chain derivatives were conducted as previously described [13]. All data are presented as the mean ± S.E.M. of the % specific binding of triplicate wells, repeated in at least three separate experiments, and curves were fitted using one-site binding curves in GraphPad Prism 9 (GraphPad Inc., San Diego, CA, USA).

RXFP1 = molecular target: T2, RXFP1 (Homo sapiens, UniProt Q9HBX9); assay: cAMP activity assay in HEK-RXFP1 cells (pCRE β-gal reporter); type: cell-based; settings: HEK-RXFP1 cells stably transfected with pCRE β-gal reporter, 37 °C for 6 h; four-parameter fit; mean ± S.E.M., n in brackets
T2 construct: expressed in transfected cells; host or cells: HEK-293T
T2 sequence (Q9HBX9 1-757): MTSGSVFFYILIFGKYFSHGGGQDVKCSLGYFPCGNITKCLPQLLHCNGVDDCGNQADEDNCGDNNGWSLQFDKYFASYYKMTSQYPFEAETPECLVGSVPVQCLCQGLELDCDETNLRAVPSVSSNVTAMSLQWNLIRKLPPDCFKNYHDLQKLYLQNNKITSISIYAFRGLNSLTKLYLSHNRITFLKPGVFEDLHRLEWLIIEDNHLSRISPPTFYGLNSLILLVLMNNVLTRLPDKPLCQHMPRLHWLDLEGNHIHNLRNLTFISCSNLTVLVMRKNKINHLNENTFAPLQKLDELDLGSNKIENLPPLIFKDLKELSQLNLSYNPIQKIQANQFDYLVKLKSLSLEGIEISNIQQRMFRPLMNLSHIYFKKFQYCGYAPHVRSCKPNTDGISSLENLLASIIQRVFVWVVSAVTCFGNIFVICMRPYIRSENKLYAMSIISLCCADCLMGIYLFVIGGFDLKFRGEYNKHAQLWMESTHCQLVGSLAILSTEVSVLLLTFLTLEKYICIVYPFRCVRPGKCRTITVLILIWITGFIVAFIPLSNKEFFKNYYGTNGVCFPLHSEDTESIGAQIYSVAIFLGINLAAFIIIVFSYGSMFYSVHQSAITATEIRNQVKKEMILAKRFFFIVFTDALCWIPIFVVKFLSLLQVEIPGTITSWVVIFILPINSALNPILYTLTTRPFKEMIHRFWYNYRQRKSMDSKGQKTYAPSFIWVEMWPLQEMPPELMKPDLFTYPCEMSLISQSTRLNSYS
Experimental: The ability of peptide analogs to activate cAMP in HEK-RXFP1 cells stably transfected with a pCRE β-gal reporter gene construct was tested as described in detail previously [13]. Cells were stimulated with increasing concentrations of peptide analogs in parallel to H2 relaxin (positive) or media (negative) controls, then incubated at 37 °C for 6 h, after which the media were aspirated, and the cells were frozen at −80 °C overnight. The following day, cAMP-driven β-gal expression was determined in cell lysates as described [32]. Experiments were performed in triplicate at least 3 times, and data were fitted to a four-parameter sigmoidal dose–response curve using GraphPad Prism 9 to determine ligand potency (pEC50).

Substance: B13-31: N-terminally truncated single-chain H2 relaxin analog, residues 13–31 (RELVRAQIAICGMSTWSKR; Relaxin B chain; UniProt P04090 37-55, looked up, fragment)
- 7BP Eu-H2 pKi [1]: < 5
- cAMP pEC50 (RXFP1): No activity
